The values that follow come from publication PMC7305299, “Nonsense-mediated mRNA decay factor UPF1 promotes aggresome formation” (Nature Communications, 2020).

In this assay the target is T1, FLAG-UPF1-HP (UniProt Q92900-2 1-1118, G495R | G497E, hyperphosphorylated in cells (detected with an anti-phospho-(S/T)Q antibody); sites not stated).
T1 construct: UPF1 with G495R and G497E in the helicase domain; also called FLAG-UPF1-(G495R/G497E); hyperphosphorylated UPF1; source: HEK293T, transiently transfected (pcDNA3-FLAG-UPF1-HP), in RNase A-treated cell extract
T1 sequence (looked up): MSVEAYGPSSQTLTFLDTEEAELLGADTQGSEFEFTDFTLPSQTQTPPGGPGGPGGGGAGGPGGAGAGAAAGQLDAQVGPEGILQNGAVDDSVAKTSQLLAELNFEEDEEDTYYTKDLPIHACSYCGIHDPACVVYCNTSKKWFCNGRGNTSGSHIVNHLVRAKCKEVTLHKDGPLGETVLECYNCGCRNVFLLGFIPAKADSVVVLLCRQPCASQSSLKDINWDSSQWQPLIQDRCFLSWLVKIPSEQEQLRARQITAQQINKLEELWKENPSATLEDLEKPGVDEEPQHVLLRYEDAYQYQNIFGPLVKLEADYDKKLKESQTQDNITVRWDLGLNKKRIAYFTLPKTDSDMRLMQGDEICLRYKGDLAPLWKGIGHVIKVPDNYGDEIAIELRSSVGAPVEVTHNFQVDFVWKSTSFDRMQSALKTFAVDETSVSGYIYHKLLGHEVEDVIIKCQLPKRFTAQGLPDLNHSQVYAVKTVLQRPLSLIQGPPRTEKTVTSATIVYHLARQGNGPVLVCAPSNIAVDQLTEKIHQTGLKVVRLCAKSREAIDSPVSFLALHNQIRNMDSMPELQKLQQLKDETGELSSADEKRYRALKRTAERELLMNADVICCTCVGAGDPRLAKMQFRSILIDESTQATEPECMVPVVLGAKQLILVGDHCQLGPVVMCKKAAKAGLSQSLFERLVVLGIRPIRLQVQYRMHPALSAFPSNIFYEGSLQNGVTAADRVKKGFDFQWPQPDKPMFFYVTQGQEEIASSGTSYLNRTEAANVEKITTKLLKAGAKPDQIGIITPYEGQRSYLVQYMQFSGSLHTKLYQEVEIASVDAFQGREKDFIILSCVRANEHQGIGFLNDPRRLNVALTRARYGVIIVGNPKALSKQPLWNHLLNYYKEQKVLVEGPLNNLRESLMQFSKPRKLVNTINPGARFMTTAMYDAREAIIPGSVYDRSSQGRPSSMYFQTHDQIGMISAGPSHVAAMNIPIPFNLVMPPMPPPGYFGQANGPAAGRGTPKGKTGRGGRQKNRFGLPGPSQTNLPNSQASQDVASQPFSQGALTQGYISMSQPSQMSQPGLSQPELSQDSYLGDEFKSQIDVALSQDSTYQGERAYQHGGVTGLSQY
The assay is described as follows: co-IP; anti-FLAG IP of FLAG-UPF1 (WT or a variant) from RNase A-treated extracts of transiently transfected HEK293T cells; cells treated with DMSO or MG132 for 12 h (Fig. 5a,b), for polypeptidyl-puro with MG132 12 h and puromycin 1 h (Fig. 5d), with or without eEF1A1 siRNA (Fig. 5e); NET-2 buffer, 4 °C; western blotting. The conditions noted are these: partners not purified.

B1: DCP1A, cellular (natural protein, human (endogenous in HEK293T), UniProt Q9NPI6 1-582, looked up)
chain: MEALSRAGQEMSLAALKQHDPYITSIADLTGQVALYTFCPKANQWEKTDIEGTLFVYRRSASPYHGFTIVNRLNMHNLVEPVNKDLEFQLHEPFLLYRNASLSIYSIWFYDKNDCHRIAKLMADVVEEETRRSQQAARDKQSPSQANGCSDHRPIDILEMLSRAKDEYERNQMGDSNISSPGLQPSTQLSNLGSTETLEEMPSGSQDKSAPSGHKHLTVEELFGTSLPKEQPAVVGLDSEEMERLPGDASQKEPNSFLPFPFEQLGGAPQSETLGVPSAAHHSVQPEITTPVLITPASITQSNEKHAPTYTIPLSPVLSPTLPAEAPTAQVPPSLPRNSTMMQAVKTTPRQRSPLLNQPVPELSHASLIANQSPFRAPLNVTNTAGTSLPSVDLLQKLRLTPQHDQIQTQPLGKGAMVASFSPAAGQLATPESFIEPPSKTAAARVAASASLSNMVLAPLQSMQQNQDPEVFVQPKVLSSAIPVAGAPLVTATTTAVSSVLLAPSVFQQTVTRSSDLERKASSPSPLTIGTPESQRKPSIILSKSQLQDTLIHLIKNDSSFLSTLHEVYLQVLTKNKDNHNL
notes: DCP1A (component of the decapping complex), cellular protein co-immunopurified from HEK293T extracts; source: endogenous, HEK293T extract
Take B1: the “fold more co-immunopurified than with UPF1-WT or UPF1-HP-12A” value was around 5 fold.
